For test [1], the target named is T1, human FGFR1b-IIIb extracellular domain with a His tag (human).
T1 construct: also called huFGFR1b-IIIb; FGFR1-IIIb
T1 chain: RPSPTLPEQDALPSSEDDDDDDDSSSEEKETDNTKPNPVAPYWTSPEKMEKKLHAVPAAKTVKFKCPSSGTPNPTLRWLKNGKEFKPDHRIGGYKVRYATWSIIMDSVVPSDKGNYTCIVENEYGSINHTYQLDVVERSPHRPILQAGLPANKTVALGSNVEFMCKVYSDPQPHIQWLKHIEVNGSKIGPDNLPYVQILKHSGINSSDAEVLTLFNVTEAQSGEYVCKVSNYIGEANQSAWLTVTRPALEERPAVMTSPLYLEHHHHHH
Kind of test: ELISA.

For a further test, the target named is T2, Human FGFR1 D2-His6 (human, UniProt P11362 22-254).
T2 construct: also called D2 domain; wild-type D2
T2 sequence: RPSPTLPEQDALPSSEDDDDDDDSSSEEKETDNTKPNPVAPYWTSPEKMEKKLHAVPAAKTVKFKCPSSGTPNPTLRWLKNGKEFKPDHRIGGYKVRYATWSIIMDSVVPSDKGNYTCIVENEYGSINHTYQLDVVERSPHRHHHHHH
Nature of the test: ELISA. Background: In an ELISA, binding on a coated surface is turned into a signal by an enzyme label.

The next test deals with FGFR1 of NCI-H520 cells (UniProt P11362 22-822). Nature of the test: cell-based or functional assay.
FGFR1 of NCI-H520 cells, sequence (P11362 22-822): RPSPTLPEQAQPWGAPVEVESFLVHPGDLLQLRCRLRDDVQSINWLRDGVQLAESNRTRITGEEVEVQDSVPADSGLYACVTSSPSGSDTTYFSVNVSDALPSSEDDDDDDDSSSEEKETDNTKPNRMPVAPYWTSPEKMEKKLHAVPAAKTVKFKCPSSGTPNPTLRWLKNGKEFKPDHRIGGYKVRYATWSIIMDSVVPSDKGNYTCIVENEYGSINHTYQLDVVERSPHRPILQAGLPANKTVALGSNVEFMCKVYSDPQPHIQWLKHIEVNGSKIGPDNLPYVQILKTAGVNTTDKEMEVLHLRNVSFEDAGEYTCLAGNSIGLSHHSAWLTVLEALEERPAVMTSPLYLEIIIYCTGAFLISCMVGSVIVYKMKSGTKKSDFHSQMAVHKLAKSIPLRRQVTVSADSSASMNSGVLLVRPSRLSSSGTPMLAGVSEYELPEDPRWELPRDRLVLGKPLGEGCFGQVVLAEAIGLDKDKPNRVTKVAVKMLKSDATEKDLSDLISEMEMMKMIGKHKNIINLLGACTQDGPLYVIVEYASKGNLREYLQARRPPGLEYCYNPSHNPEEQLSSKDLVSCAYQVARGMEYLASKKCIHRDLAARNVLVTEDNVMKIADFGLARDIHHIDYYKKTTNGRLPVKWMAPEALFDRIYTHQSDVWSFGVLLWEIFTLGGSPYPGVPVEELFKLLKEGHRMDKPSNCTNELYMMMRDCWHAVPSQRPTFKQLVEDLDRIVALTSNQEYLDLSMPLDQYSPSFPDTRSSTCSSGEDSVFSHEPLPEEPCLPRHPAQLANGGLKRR
Test [2] deals with T3, human FGFR1b-IIIc extracellular domain with a His tag (human, UniProt P11362 22-376).
T3 construct: also called huFGFR1b-IIIc; FGFR1-IIIc
T3 sequence: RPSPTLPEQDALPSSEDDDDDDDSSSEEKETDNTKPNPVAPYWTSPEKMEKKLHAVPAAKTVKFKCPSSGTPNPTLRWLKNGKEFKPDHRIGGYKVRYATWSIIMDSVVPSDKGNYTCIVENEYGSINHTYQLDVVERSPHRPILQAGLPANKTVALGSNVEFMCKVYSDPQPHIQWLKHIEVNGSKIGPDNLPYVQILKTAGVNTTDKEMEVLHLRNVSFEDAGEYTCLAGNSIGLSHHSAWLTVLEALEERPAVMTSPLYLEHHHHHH
Nature of the test: SPR (BIAcore 4000), antibody captured by anti-human Fc, His-tagged FGFR1 injected. (In SPR one partner is held on a chip, and binding of the other changes the refractive index at the surface.)

For test [3], the target named is T1, human FGFR1b-IIIb extracellular domain …. Kind of test: ELISA, IgG1 format.
Test [4] deals with T3, human FGFR1b-IIIc extracellular domain …. Nature of the test: ELISA, IgG1 format.
Test [5] concerns the target T4, human FGFR1 (FGFR1b-IIIb or FGFR1b-IIIc, not stated which) (human, UniProt P11362 22-376).
T4 chain: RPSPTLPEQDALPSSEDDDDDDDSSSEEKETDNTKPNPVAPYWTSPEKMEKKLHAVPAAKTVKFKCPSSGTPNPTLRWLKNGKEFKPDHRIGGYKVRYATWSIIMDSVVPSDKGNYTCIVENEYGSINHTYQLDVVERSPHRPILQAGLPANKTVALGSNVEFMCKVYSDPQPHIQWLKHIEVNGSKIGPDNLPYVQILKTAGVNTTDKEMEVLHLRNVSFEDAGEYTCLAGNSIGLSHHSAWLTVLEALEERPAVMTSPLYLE
Nature of the test: ELISA on coated human FGFR1b (IIIb or IIIc, not stated which).

Test [6] deals with T4, human FGFR1 (FGFR1b-IIIb or …). Nature of the test: ELISA on coated human FGFR1b (IIIb or IIIc, not stated which), IgG1 format.
Test [7] deals with T1, human FGFR1b-IIIb extracellular domain …. Kind of test: SPR (BIAcore 4000), antibody captured by anti-human Fc, His-tagged FGFR1 injected.

Numbering of substitutions follows the chain as printed.

B1: mAb #A05 (#A05 hit), anti-FGFR1 antibody (antibody, IgG1, V domains shown)
VH: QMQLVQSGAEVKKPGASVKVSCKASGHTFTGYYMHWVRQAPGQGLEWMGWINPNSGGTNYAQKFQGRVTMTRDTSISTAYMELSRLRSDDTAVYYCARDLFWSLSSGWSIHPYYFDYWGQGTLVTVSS
VL: QSALTQPASVSGSPGQSITISCTGTSSDVGSYNLVSWYQQHPGKAPKLMIYGGSKRPSGVPDRFSGSKSDTSASLTISGLQAEDEADYYCCSYTYNGDVFGTGTKVTVL
notes: also called imAb #A05
As a reminder, the Kd is the free concentration of one partner at which half of the binding sites on the other are occupied at equilibrium, for simple one-to-one binding. Turning to B1, the binding result in test [1] is “binds”. The binding result in the test with Human FGFR1 D2-His6 was “no binding”. Moreover, in the test with FGFR1 of NCI-H520 cells, the “IC50 of inhibition of FGF1-induced pFGFR1 in NCI-H520 cells” value was 1 nM and the “IC50 of inhibition of FGF2-induced pFGFR1 in NCI-H520 cells” value came to 1 nM. In test [2], this molecule came in with a dissociation constant (Kd) of 0.01 nM.

B2: monovalent SEEDbody #A08 (antibody)
heavy: EVQLQESGPGLVKPSGTLSLTCAVSGGSISSNNWWSWVRQPPGKGLEWIGEIYHSGSTSYNPSLKSRVTISVDKSKNQFSLKLSSVTAADTAVYYCARGTDWFDPWGQGTLVTVSSASTKGPSVFPLAPSSKSTSGGTAALGCLVKDYFPEPVTVSWNSGALTSGVHTFPAVLQSSGLYSLSSVVTVPSSSLGTQTYICNVNHKPSNTKVDKRVEPKSCDKTHTCPPCPAPELLGGPSVFLFPPKPKDTLMISRTPEVTCVVVDVSHEDPEVKFNWYVDGVEVHNAKTKPREEQYNSTYRVVSVLTVLHQDWLNGKEYKCKVSNKALPAPIEKTISKAKGQPFRPEVHLLPPSREEMTKNQVSLTCLARGFYPKDIAVEWESNGQPENNYKTTPSRQEPSQGTTTFAVTSKLTVDKSRWQQGNVFSCSVMHEALHNHYTQKTISLSPG
chain: EPKSSDKTHTCPPCPAPELLGGPSVFLFPPKPKDTLMISRTPEVTCVVVDVSHEDPEVKFNWYVDGVEVHNAKTKPREEQYNSTYRVVSVLTVLHQDWLNGKEYKCKVSNKALPAPIEKTISKAKGQPREPQVYTLPPPSEELALNELVTLTCLVKGFYPSDIAVEWLQGSQELPREKYLTWAPVLDSDGSFFLYSILRVAAEDWKKGDTFSCSVMHEALHNHYTQKSLDRSPG
light: SYVLTQPPSVSVAPGQTARITCGGNNIGSESVHWYQQKPGQAPVLVVYDDSDRPSGIPERFSGSNSGNTATLTISRVEAGDEADYYCQVWDSTSDHRVFGGGTKLTVLGQPKAAPSVTLFPPSSEELQANKATLVCLISDFYPGAVTVAWKADSSPVKAGVETTTPSKQSNNKYAASSYLSLTPEQWKSHKSYSCQVTHEGSTVEKTVAPTECS
Take B2: in the test with FGFR1 of NCI-H520 cells, the “IC50 of inhibition of FGF1-induced pFGFR1 in NCI-H520 cells” value turned out to be 70 nM; the “IC50 of inhibition of FGF2-induced pFGFR1 in NCI-H520 cells” value is 6 nM; the “IC50 of inhibition of pFGFR1 in NCI-H520 cells in the absence of ligand” value is 20 nM; the “fold change of pFGFR1 inhibition IC50, monovalent against bivalent format” value was about 10 fold.

B3: mAb #A02 in the IgG1 format (antibody, V domains shown)
VH: QVQLQESGPGLVKPSGTLSLTCAVSGGSISSNNWWSWVRQPPGKGLEWIGEIYHSGSTSYNPSLKSRVTISVDKSKNQFSLKLSSVTAADTAVYYCARATDWFDLWGQGTLVTVSS
VL: SYVLTQPPSVSVAPGQTARITCGGNNIGSESVHWYQQKPGQAPVLVVYDDSDRPSGIPERFSGSNSGNTATLTISRVEAGDEADYYCQVWDSTSDHRVFGGGTKLTVL
On to B3, for which the binding result in test [3] and in [4] was “binds” each time.

B4: mAb #D01 in the IgG1 format (antibody, V domains shown)
VH: B3 VH with L105H
VL: SYVLTQPPSVSVAPGQTARITCGGNNIGSESVHWYQQKPGQAPVLVVYDDSDRPSGIPERFSGSNSGNTATLTISRVEAGDEADYYCQVWDSTSDHRVFGGGTKLTVLG
The term EC50 denotes the concentration giving half of the maximal effect. For the molecule B4, the EC50 in test [5] amounted to 0.015 nM.

B5: #A08 lead IgG1 antibody (bivalent) (antibody, V domains shown)
VH: B3 VH with Q1E, A99G, L105P
VL: B4 VL
notes: also called lgG1 (bivalent) format of #A08; #A08 lead-lgG1 m3 antibody
In turn, B5 yielded an EC50 in [6] of 0.008 nM.

B6: mAb #A08 (#A08 hit), anti-FGFR1 antibody (antibody, V domains shown)
VH: B3 VH with Q1E, S84N, A99G, L105P
VL: B3 VL with S1Q, Y2A
notes: also called imAb #A08; clone #A08
Turning to B6, in the test with FGFR1 of NCI-H520 cells, the “IC50 of inhibition of FGF1-induced pFGFR1 in NCI-H520 cells” value is 4 nM and the “IC50 of inhibition of FGF2-induced pFGFR1 in NCI-H520 cells” value is 0.2 nM. The molecule further gave a Kd in [7] of 0.01 nM. Moreover, in test [2], binding was put at a Kd of 0.017 nM.

B7: mAb #C01 in the IgG1 format (antibody, V domains shown)
VH: B3 VH with L105A
VL: B3 VL
Regarding B7, the binding result in test [3] and in test [4] was “binds” throughout.

(Values after patent publication WO2018095932A1 (dated 2018).)
